The data set in a line: protein stability index of a GFP-peptide fusion (GPS, HEK-293T) (PSI 1-6); higher = more stable.
Where [1] appears, read: treatment: DMSO, c terminus: a fixed tail appended.
Setting [2] is: treatment: MLN4924 1 uM, 8 h, c terminus: a fixed tail appended.

± gives the standard deviation.
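Further: 24-mer peptide tiles fused after GFP, lentivirally expressed, FACS-sorted into six equal bins by GFP/DsRed ratio, decoded by Illumina sequencing, PSI is the read-weighted mean bin number.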

DNARLAADDFRTKYEHELALRQTV [KRT16]: the protein stability index is 4.01 ± 0.17 under setting [1] and 4.11 ± 0.26 under setting [2].

Turning to CQILELLNAELEEKMMQEAEKLKA [CCDC89], the protein stability index runs as follows: under setting [1], 3.76 ± 0.26; under setting [2], 3.65 ± 0.17.

For the sequence YHSQDRYEFSSHITRGEHRFHMS [IKZF1], the protein stability index was 2.85 ± 0.39 (treatment: DMSO, c terminus: native) and 2.86 ± 0.58 (treatment: MLN4924 1 uM, 8 h, c terminus: native).

In the case of GEDTRLSASEMKQLIDNILEESDI [CIB1], the protein stability index runs as follows: under setting [1], 5.27 ± 0.27; under setting [2], 5.26 ± 0.25.

As for APSEGSAEAAPELDLFAMKPPETS [SNAP91], the protein stability index is, setting by setting: under setting [1], 5.39 ± 0.23; under setting [2], 5.47 ± 0.19.

For the sequence MCDAFVGTWKLVSSENFDDYMKEV [FABP4], the protein stability index by setting is: under setting [1], 2.55 ± 0.44; under setting [2], 2.42 ± 0.46.

ESDTDIYETVAAATSESTTVEPGK [DRICH1]: the protein stability index was found to be 5.66 ± 0.14 under setting [1] and 5.6 ± 0.2 under setting [2].

On to SKRLAVPCKLEKMRILAHGELVLA [TLE6], for which the protein stability index by setting is: under setting [1], 2.26 ± 0.49; under setting [2], 2.35 ± 0.45.

Consider RMIPGQPPASARRLSVPRDSACDE [IRX6], for which the protein stability index was 5.29 ± 0.24 under setting [1] and 5.29 ± 0.15 under setting [2].

For the sequence CKRNFVAVYDGSSSVEDLKAKFCS [NETO1], the protein stability index amounted to 2.78 ± 0.39 under setting [1] and 2.9 ± 0.36 under setting [2].

As for CDDSFTPQEKLWQQLRRGRYVEFN [CPOX], the protein stability index under setting [1] is 3.08 ± 0.14 and the protein stability index under setting [2] is 2.89 ± 0.3.

As to QRFEVIEFDDGSGSVLRIQPLRTP [PTPRD], the protein stability index runs as follows: under setting [1], 2.68 ± 0.28; under setting [2], 2.99 ± 0.21.

Consider RESCPPLGLETLKITDFQLHASTV [CPXM2], for which the protein stability index is, setting by setting: under setting [1], 3.29 ± 0.15; under setting [2], 3.32 ± 0.14.

The sequence NGVLEPLYLCPNGARCATWFQDPT [SLC25A39] came in with a protein stability index under setting [1] of 2.48 ± 0.19 and a protein stability index under setting [2] of 2.47 ± 0.074.

IQFIKLFGMAKIDNLLQEMLLGGS [HNF4A]: the protein stability index was 2.84 ± 0.72 under setting [1] and 3.11 ± 0.61 under setting [2].

Regarding FMECLVDARMLDHLTKKDLRVHLK [PPFIA4], the protein stability index under setting [1] is 2.4 ± 0.32 and the protein stability index under setting [2] stood at 2.67 ± 0.24.

Take FIMLSCVQLQRIPLSAVYRICLGK [TPRG1]: the protein stability index was 3.06 ± 0.75 under setting [1] and 2.01 ± 0.43 under setting [2].

Take EAYTEHRPEITSRAINLLFDIARI [ZER1]: the protein stability index came out at 2.14 ± 0.18 under setting [1] and 2.01 ± 0.21 under setting [2].

RKRRLFCTMEPEPVQPGMLIDVCK [TRIM35]: the protein stability index is 2.6 ± 0.41 under setting [1] and 2.69 ± 0.12 under setting [2].

With AEKCLDFLVDMFNDEIEEVRLQSI [INTS4], the protein stability index under setting [1] worked out at 2.94 ± 0.16 and the protein stability index under setting [2] amounted to 2.94 ± 0.4.

In the case of NRNHNEGMVTRCIIEVLSNALSKS [CHGB], the protein stability index came out at 2.25 ± 0.24 under setting [1] and 2.1 ± 0.27 under setting [2].

In the case of WAAKAPGASSREEPPEEPEQCPVI [SPDEF], the protein stability index runs as follows: under setting [1], 5.28 ± 0.31; under setting [2], 5.27 ± 0.2.

For the sequence RTTSVRCRGIPRGPVRPAIPPPLS [NEK8], the protein stability index stood at 3.37 ± 0.1 under setting [1] and 3.64 ± 0.23 under setting [2].

In turn, HVTCVDQSEHTMVLRCQLSAEEVR [C2CD2L] returned a protein stability index under setting [1] of 3.73 ± 0.19 and a protein stability index under setting [2] of 3.82 ± 0.18.

LVQSSRSEVTELRRVLQGLEIELQ [KRT16]: the protein stability index came to 3.1 ± 0.24 under setting [1] and 3.08 ± 0.38 under setting [2].

Take ALAAIYEEKEAWYREESDSLGQDL [DAPK3]: under setting [2], the protein stability index was determined as 4.6 ± 0.5.

For the sequence AVNRARRPLARPIKPNEILPPEKG [RHOBTB2], the protein stability index is 4.24 ± 0.12 under setting [1] and 4.27 ± 0.12 under setting [2].

Regarding AHEYIFCFVLGFFYPVMLILFLVI [SOAT2], the protein stability index is, setting by setting: under setting [1], 2.98 ± 0.56; under setting [2], 3.03 ± 0.23.

Consider HYPFLGAMGDHSKKKPGTAMCVGC [ISL2], for which the protein stability index is, setting by setting: under setting [1], 2.86 ± 0.34; under setting [2], 3.25 ± 0.43.

Turning to GKLSWGTMARALGRFKLSIPHTHL [WDR88], the protein stability index reads like this: under setting [1], 2.31 ± 0.28; under setting [2], 2.13 ± 0.11.

In the case of TAGPITGLVYRLNRFRVEISFHFE [TRIM43], the protein stability index is, setting by setting: under setting [1], 3.02 ± 0.7; under setting [2], 3.2 ± 0.52.

In the case of DKLGELSDKIGSTIDDTISKFRRK [CLINT1], the protein stability index reads like this: under setting [1], 3.32 ± 0.58; under setting [2], 3.4 ± 0.39.

Consider SSNLGQHQRIHTGEKPFECNECGK [ZNF232], for which the protein stability index runs as follows: under setting [1], 4.78 ± 0.22; under setting [2], 5.01 ± 0.19.

Regarding LINHKKAEDTEKKDEPSKYNQQQA [CEP70], the protein stability index reads like this: under setting [1], 5.4 ± 0.21; under setting [2], 5.26 ± 0.38.

Turning to LDPHFVPTELWPQEAVPLGLGLED [TEX19], the protein stability index reads like this: under setting [1], 5.13 ± 0.3; under setting [2], 4.91 ± 0.17.

For the sequence YIHSCPKMKYKGQYRPSDLLCPET [ATE1], the protein stability index reads like this: under setting [1], 2.06 ± 0.29; under setting [2], 2.47 ± 0.34.

For the sequence VIPFKVDTILKYLKDHFSHLLGIP [IQUB], the protein stability index is 2.92 ± 0.12 under setting [1] and 2.65 ± 0.18 under setting [2].

AHVGMELQLKQELAMLNAVTEDLR [SCARA5]: the protein stability index runs as follows: under setting [1], 3.27 ± 0.27; under setting [2], 3.16 ± 0.45.

For MDVAISNNKKWILSASKDRTMRLW [WDR88], the protein stability index by setting is: under setting [1], 2.38 ± 0.19; under setting [2], 2.35 ± 0.32.

Consider KHVEYEVSSQRFKSSVYRRYNDFV [SNX8], for which the protein stability index by setting is: under setting [1], 2.35 ± 0.3; under setting [2], 2.8 ± 0.39.

For HDKIRPISSIGQVQSYMEHYCNSS [SPACA9], the protein stability index was found to be 3.6 ± 0.4 under setting [1] and 3.72 ± 0.18 under setting [2].

The sequence VRFSLGTTTHAPPGVHRRYSALRE [PPFIA4] had a protein stability index under setting [1] of 2.72 ± 0.19 and a protein stability index under setting [2] of 2.76 ± 0.19.

DRHTKFFEEPEDPSNRSFFSEIIS [PPP2R2B]: the protein stability index runs as follows: under setting [1], 3.38 ± 0.1; under setting [2], 3.48 ± 0.23.

Consider SPGHSSAGQEGEDTLRRRLLAPEA [TOR1AIP2], for which the protein stability index is, setting by setting: under setting [1], 4.29 ± 0.052; under setting [2], 4.51 ± 0.27.

Sequence KCHLWTAMDLGFFVVMGVIGGLLG [CLCN6] yielded a protein stability index under setting [1] of 3.14 ± 0.38 and a protein stability index under setting [2] of 3 ± 0.24.

As to QLKKCETRKLSPGKKRCKDIKRLL [SMG5], the protein stability index runs as follows: under setting [1], 3.32 ± 0.51; under setting [2], 3.22 ± 0.18.

Consider VLEEQLVKAKEQIENYKKQTRNGL [FUT8], for which the protein stability index by setting is: under setting [1], 3.77 ± 0.1; under setting [2], 3.89 ± 0.35.

As for EFFAVTRFLVGMMNGGMSLVAFVL [SLC22A15], the protein stability index by setting is: under setting [1], 2.22 ± 0.24; under setting [2], 2.2 ± 0.38.

Consider PPHKHVARPTEVLAGTQLLYAFFT [TRIB3], for which the protein stability index reads like this: under setting [1], 2.46 ± 0.21; under setting [2], 2.43 ± 0.15.

KESLCISITVSKVDKDQPSILNSC [FBXO34]: the protein stability index under setting [1] was determined as 2.28 ± 0.33 and the protein stability index under setting [2] was 2.09 ± 0.28.

On to DLCSDVNVCSLLAQTPLHVAAETG [RIPK4], for which the protein stability index under setting [1] was determined as 3.46 ± 0.4 and the protein stability index under setting [2] stood at 3.21 ± 0.47.

Turning to SSSLAQHQRKHAGEKPFECRQRLI [ZNF8], the protein stability index under setting [1] is 3.74 ± 0.18 and the protein stability index under setting [2] is 3.69 ± 0.17.

Consider LLQADREHLPVKPDTMEKLRTHID [DENND6A], for which the protein stability index runs as follows: under setting [1], 3.86 ± 0.36; under setting [2], 3.92 ± 0.12.
